US11912970B2, “Universal microfluidic culture system to analyze and control cell dynamics” (The University of Chicago, priority 2017, dated 2024)

Experiments:
Assay type in all cases: cell-based, mouse
mice HSCs = experiment: M-CSF induced differentiation of mice HSCs on chip; settings: media replacement through the buffering layer
Excerpt: FIG. 11B(I) depicts the culture of mice HSCs cells in suspension mode, and (II) depicts the differentiation of mice HSCs cells by introducing M-CSF differentiation media.
Murine hematopoietic stem cells (HSC) are isolated by FACSAria III flow cytometer (BD Biosciences) as Lin−/c-Kit+/Sca-1+/CD48−/CD150+/CD34− (lineage, Lin: CD3e/CD11b/CD19/CD41/B220/Gr-1/Ter-119), which are approximately 50% pure HSCs. Macrophage colony-stimulating factor (M-CSF), a myeloid cytokine released during infection and inflammation, is employed to induce HSCs differentiation. Human CD34+ cells were isolated from mononuclear cells using EasySepTM human CD34 positive selection kit (Stemcell Technologies, Vancouver, BC, Canada). CD34+CD38−CD45RA−CD90+CD49f+ HSCs were sorted using a FACSAria III flow cytometer (BD Biosciences). Pro- and anti-inflammatory cytokines including TNF, IFN[…], IL-6, IP10 and MCP-1 are introduced into the cellular environment as single ligand and in combination. Embryonic NSCs with Hes-GFP and Dcx-RFP reporters were isolated at embryonic day 13.5 from a transgenic mice carrying Hes-GFP and Dcx-RFP using standard protocol (Woo, et al., 2009; Basak, et al., 2007). The resulting primary cells were verified to carry both Hes5-GFP and Dcx-RFP after isolation and allowed to grow for few passages before use in the experiments (Giachino, et al., 2009). […]

[1] = system: Hes5-GFP expression in NSCs; experiment: NSCs Hes5-GFP expression under sequential ligand inputs (permutation test and decision tree analysis); settings: sequential input
Excerpt: (§1) Murine hematopoietic stem cells (HSC) are isolated by FACSAria III flow cytometer (BD Biosciences) as Lin−/c-Kit+/Sca-1+/CD48−/CD150+/CD34− (lineage, Lin: CD3e/CD11b/CD19/CD41/B220/Gr-1/Ter-119), which are approximately 50% pure HSCs. Macrophage colony-stimulating factor (M-CSF), a myeloid cytokine released during infection and inflammation, is employed to induce HSCs differentiation. Human CD34+ cells were isolated from mononuclear cells using EasySepTM human CD34 positive selection kit (Stemcell Technologies, Vancouver, BC, Canada). CD34+CD38−CD45RA−CD90+CD49f+ HSCs were sorted using a FACSAria III flow cytometer (BD Biosciences). […]
(§2) For image acquisition, a Nikon Ti-ECLIPSE microscope with an automated translation stage and a digital CMOS camera (ORCA-Flash 4.0, Hamamatsu, Japan) was used. […] Bright field and fluorescence images were acquired and analyzed using a customized MATLAB program (Mathworks, […]). The algorithm extracts single cell traces including position, nuclear and cytoplasm fluorescence level. For example, the 3T3 cell nuclear area in each image is identified via the fluorescent nuclear marker GFP, and then the mean value of the nuclear intensity of the p65-DsRed marker is measured, and plotted as a function of time. […]

NSCs [2] = experiment: NSCs proliferation (cell number) under combinatorial ligand inputs (permutation test and decision tree analysis); settings: combinatorial input, decision tree, without PACAP
Excerpt: as §1, §2

NSCs [3] = experiment: NSCs proliferation (cell number) under sequential ligand inputs (permutation test and decision tree analysis); settings: sequential input, ligand added at day 1
Excerpt: as §1, §2

Row | Molecule | response of HSCs to ligand input (mice HSCs) | effect on Hes5 expression ([1]; DLL added before Jagged in the first 3 days) | Hes5 expression relative to control ([1]; ligand added at day 1) | cell number, mean ratio relative to control (NSCs [2]; Jagged present) | cell number, mean ratio relative to control (NSCs [2]; Jagged with DLL also added) | cell number relative to control (NSCs [3])
1 | M-CSF: myeloid cytokine released during infection and inflammation, employed to induce HSCs differentiation (protein, UniProt P09603 33-554, looked up) Macrophage colony-stimulating …: EEVSEYCSHMIGSGHLQSLQRLIDSQMETSCQITFEFVDQEQLKDPVCYLKKAFLLVQDIMEDTMRFRDNTPNAIAIVQLQELSLRLKSCFTKDYEEHDKACVRTFYETPLQLLEKVKNVFNETKNLLDKDWNIFSKNCNNSFAECSSQDVVTKPDCNCLYPKAIPSSDPASVSPHQPLAPSMAPVAGLTWEDSEGTEGSSLLPGEQPLHTVDPGSAKQRPPRSTCQSFEPPETPVVKDSTIGGSPQPRPSVGAFNPGMEDILDSAMGTNWVPEEASGEASEIPVPQGTELSPSRPGGGSMQTEPARPSNFLSASSPLPASAKGQQPADVTGTALPRVGPVRPTGQDWNHTPQKTDHPSALLRDPPEPGSPRISSLRPQGLSNPSTLSAQPQLSRSHSSGSVLPLGELEGRRSTRDRRSPAEPEGGPASEGAARPLPRFNSVPLTDTGHERQSEGSFSPQLQESVFHLLVPSVILVLLAVGGLLFYRWRRRSHQEPQRADSPLEQPEGSPLTQDDRQVELPV | instantaneous response |  |  |  |  | 
2 | Jagged: signaling ligand whose receptor is highly expressed during mouse forebrain development (protein, UniProt Q9QXX0 34-1218, looked up) Protein jagged-1: QFELEILSMQNVNGELQNGNCCGGVRNPGDRKCTRDECDTYFKVCLKEYQSRVTAGGPCSFGSGSTPVIGGNTFNLKASRGNDRNRIVLPFSFAWPRSYTLLVEAWDSSNDTIQPDSIIEKASHSGMINPSRQWQTLKQNTGIAHFEYQIRVTCDDHYYGFGCNKFCRPRDDFFGHYACDQNGNKTCMEGWMGPDCNKAICRQGCSPKHGSCKLPGDCRCQYGWQGLYCDKCIPHPGCVHGTCNEPWQCLCETNWGGQLCDKDLNYCGTHQPCLNRGTCSNTGPDKYQCSCPEGYSGPNCEIAEHACLSDPCHNRGSCKETSSGFECECSPGWTGPTCSTNIDDCSPNNCSHGGTCQDLVNGFKCVCPPQWTGKTCQLDANECEAKPCVNARSCKNLIASYYCDCLPGWMGQNCDININDCLGQCQNDASCRDLVNGYRCICPPGYAGDHCERDIDECASNPCLNGGHCQNEINRFQCLCPTGFSGNLCQLDIDYCEPNPCQNGAQCYNRASDYFCKCPEDYEGKNCSHLKDHCRTTTCEVIDSCTVAMASNDTPEGVRYISSNVCGPHGKCKSQSGGKFTCDCNKGFTGTYCHENINDCESNPCKNGGTCIDGVNSYKCICSDGWEGAHCENNINDCSQNPCHYGGTCRDLVNDFYCDCKNGWKGKTCHSRDSQCDEATCNNGGTCYDEVDTFKCMCPGGWEGTTCNIARNSSCLPNPCHNGGTCVVNGDSFTCVCKEGWEGPICTQNTNDCSPHPCYNSGTCVDGDNWYRCECAPGFAGPDCRININECQSSPCAFGATCVDEINGYQCICPPGHSGAKCHEVSGRSCITMGRVILDGAKWDDDCNTCQCLNGRVACSKVWCGPRPCRLHKSHNECPSGQSCIPVLDDQCFVRPCTGVGECRSSSLQPVKTKCTSDSYYQDNCANITFTFNKEMMSPGLTTEHICSELRNLNILKNVSAEYSIYIACEPSLSANNEIHVAISAEDIRDDGNPVKEITDKIIDLVSKRDGNSSLIAAVAEVRVQRRPLKNRTDFLVPLLSSVLTVAWVCCLVTAFYWCVRKRRKPSSHTHSAPEDNTTNNVREQLNQIKNPIEKHGANTVPIKDYENKNSKMSKIRTHNSEVEEDDMDKHQQKVRFAKQPVYTLVDREEKAPSGTPTKHPNWTNKQDNRDLESAQSLNRMEYIV |  | enhance Hes5 expression | 94.5 % of the control | 1.14 | 1.08 | 111.0 % of the control
